Results on 3 substances are retold here after PMC7174398.

The target of experiment [1] is mHsp60 S464C variant (human). In words: SEC-MALS; mHsp60 (WT or variant) with mHsp10, pre-incubated with 1 mM ATP, 1 mM BeCl2 and 10 mM NaF for 5 min; Superose-6, ~25 C. A general note: In gel filtration, larger molecules generally elute earlier.
Experiment [2] has as its target mHsp60 S464C variant (human). Kind of experiment: native gel or EMSA; 15 uM mHsp60 variant pre-incubated 5 min without nucleotide or with ADP in 20 mM Tris-HCl pH 7.7, 20 mM MgCl2, 50 mM KCl; 6% native PAGE.
Experiment [3] addresses mHsp60 S464R variant (human). In words: SEC-MALS; mHsp60 (WT or variant) with mHsp10, pre-incubated with 1 mM ATP, 1 mM BeCl2 and 10 mM NaF for 5 min; Superose-6, ~25 C.
Experiment [4] deals with mHsp60 S464R/K109E variant (human). The description is as above.

For mHsp60 S464C variant (natural protein), the stoichiometry N turned out to be 14 in experiment [1] and 7 in experiment [2].

Substance mHsp60 S464R variant (natural protein) registered a stoichiometry N in experiment [3] of 7.

Consider “mHsp60 S464R/K109E variant (natural protein)”, for which the stoichiometry N in experiment [4] turned out to be 7.

For orientation: stoichiometry N means a count of units in the complex or per binding partner.
